The values below are quoted from earlier work in publication PMC10605242.

In series [1] the target is C4b dimer (B isoform) (Homo sapiens) (UniProt P0C0L5).
Series [2] concerns the target C4b dimer (A isoform) (Homo sapiens) (UniProt P0C0L4).
Another series addresses C4b (Homo sapiens) (UniProt P0C0L4).

In general, Kd refers to the equilibrium constant for the complex coming apart. CR1 (from UniProt P17927): the Kd in series [1] is 0.445 µM; in series [2], 0.13 µM.

CR1 SCR15-18 (from UniProt P17927): the dissociation constant (Kd) with C4b (Homo sapiens) was 1.2 µM.
